# Test results from patent US20260374838 (published 2026).
# Read-outs that look alike come from different tables or passages of the source.
# T1: human CD200R1L (human, UniProt Q6Q8B3)
# T1 chain: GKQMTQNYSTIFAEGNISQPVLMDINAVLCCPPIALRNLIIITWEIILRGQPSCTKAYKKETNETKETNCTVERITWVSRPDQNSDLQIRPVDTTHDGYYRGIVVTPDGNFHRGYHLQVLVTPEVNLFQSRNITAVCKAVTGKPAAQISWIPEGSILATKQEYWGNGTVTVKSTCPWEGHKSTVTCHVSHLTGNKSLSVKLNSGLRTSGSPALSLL
# T2: murine CD200R1 (mouse, UniProt Q9ES57)
# T2 chain: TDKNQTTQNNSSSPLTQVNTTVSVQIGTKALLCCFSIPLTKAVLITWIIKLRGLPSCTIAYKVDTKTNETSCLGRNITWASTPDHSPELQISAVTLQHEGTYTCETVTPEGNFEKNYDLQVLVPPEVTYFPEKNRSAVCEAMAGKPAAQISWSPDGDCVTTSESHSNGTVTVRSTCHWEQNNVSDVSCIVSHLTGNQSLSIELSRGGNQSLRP
# T3: human CD200R (human, UniProt Q8TD46)
# T3 chain: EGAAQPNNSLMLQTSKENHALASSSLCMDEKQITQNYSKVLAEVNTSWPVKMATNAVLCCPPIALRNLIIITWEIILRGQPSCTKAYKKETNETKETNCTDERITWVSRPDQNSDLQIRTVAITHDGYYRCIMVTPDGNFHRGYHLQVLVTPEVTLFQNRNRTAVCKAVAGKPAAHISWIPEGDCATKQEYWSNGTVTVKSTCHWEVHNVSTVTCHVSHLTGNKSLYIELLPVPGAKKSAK
# Assays:
# human CD200R1L = target: T1, human CD200R1L; experiment: SPR, 25C
# murine CD200R1 [1] = target: T2, murine CD200R1; experiment: SPR, 25C
# human CD200R [2] = target: T3, human CD200R; experiment: SPR, 25C
# human CD200R [3] = target: T3, human CD200R; experiment: SPR, 25C
# murine CD200R1 [4] = target: T2, murine CD200R1; experiment: SPR
Binder,binding result (human CD200R1L),binding result (murine CD200R1 [1]),Kd (human CD200R [2]) [nM],Kd (human CD200R [3]) [nM],Kd (murine CD200R1 [4]) [nM]
DS-118 (antibody) QVQVVTQDEREQLYTPASLKCSLQNAQEALIVTWQKKKAVSPENMVTFSENHGVVIQPAYKDKINITQLGLQNSTITFWNITLEDEGCYMCLFNTFGFGYYSGTACLTVYVQPIVSLHYKFSEDHLNITCSATARPAPMVFWKVPRSGIENSTVTLSHPNGTTSVTSILHIKDPKNQVGKEVICQVLHLGTVTDFKQTVNKGPPCPPCPAPEFLGGPSVFLFPPKPKDTLMISRTPEVTCVVVDVSQEDPEVQFNWYVDGVEVHNAKTKPREEQFNSTYRVVSVLTVLHQDWLNGKEYKCKVSNKGLPSSIEKTISKAKGQPREPQVYTLPPSQEEMTKNQVSLTCLVKGFYPSDIAVEWESNGQPENNYKTTPPVLDSDGSFFLYSRLTVDKSRWQEGNVFSCSVMHEALHNHYTQKSLSLSLGK,no binding,no binding,1.3,1.3,
"DS-20 (antibody, wild-type CD200 ectodomain fused to human IgG1 Fc (dimer); UniProt numbering) QVQVVTQDEREQLYTPASLKCSLQNAQEALIVTWQKKKAVSPENMVTFSENHGVVIQPAYKDKINITQLGLQNSTITFWNITLEDEGCYMCLFNTFGFGKISGTACLTVYVQPIVSLHYKFSEDHLNITCSATARPAPMVFWKVPRSGIENSTVTLSHPNGTTSVTSILHIKDPKNQVGKEVICQVLHLGTVTDFKQTVNKG",no binding,no binding,,111,
"DS-155 (antibody, wild-type CD200 ectodomain fused to human IgG4 S228P Fc (dimer); UniProt numbering) QVQVVTQDEREQLYTPASLKCSLQNAQEALIVTWQKKKAVSPENMVTFSENHGVVIQPAYKDKINITQLGLQNSTITFWNITLEDEGCYMCLFNTFGFGKISGTACLTVYVQPIVSLHYKFSEDHLNITCSATARPAPMVFWKVPRSGIENSTVTLSHPNGTTSVTSILHIKDPKNQVGKEVICQVLHLGTVTDFKQTVNKG",no binding,no binding,179,179,
DS-227 (protein) QVEVVTQDERKALHTTASLRCSLKTSQEPLIVTWQKKKAVSPENMVTYSKTYGVVIQPAYKDRINVTELGLWNSSITFWNTTLEDEGCYMCLFNIFGSQKVSGTACLTLYVQPIVHLHYNYFEDHLNITCSATARPAPAISWKGTGTGIENSTESHFHSNGTTSVTSILRVKDPKTQVGKEVICQVLYLGNVIDYKQSLDKG,,,,,43.3
"DS-198 (protein, wild-type murine CD200 fused to murine IgG2a Fc) QVEVVTQDERKALHTTASLRCSLKTSQEPLIVTWQKKKAVSPENMVTYSKTHGVVIQPAYKDRINVTELGLWNSSITFWNTTLEDEGCYMCLFNTFGSQKVSGTACLTLYVQPIVHLHYNYFEDHLNITCSATARPAPAISWKGTGTGIENSTESHFHSNGTTSVTSILRVKDPKTQVGKEVICQVLYLGNVIDYKQSLDKG",,,,,584
